Entries after “also recorded” stand apart in the source; their conditions may differ.
Assays:
[1] = target: T1, RAR peptide-HLA-B*07:02 (pMHC) complex (Homo sapiens, UniProt P01889+Q9UBF1); test: Peptide pulse-based cytotoxicity assay with granzyme-activated fluorescent reporter in HLA-B*07:02 monoallelic HEK293T cells; assay type: cell-based; conditions: HLA-B*07:02 monoallelic HEK293T reporter cells pulsed with RAR peptide, co-cultured with TCR-transduced T cells; FIG. 4B
T1 construct: expressed in transfected cells; host or cells: MHC-null HEK293T cells engineered to express HLA-B*07:02 (monoallelic reporter cells)
Experimental: (§1) To characterize the recognition of the identified peptide by a TCR, wild-type HEK293 cells were pulsed with serial dilutions of peptide and co-cultured with T cells transduced with the TCR of interest. After 24 hours, cultures were mixed by pipetting, and centrifuged at 2,000 rpm for 2 minutes. Supernatants were collected and measured for IFNγ secretion using a human IFNγ 3rd generation single-plex assay (Protein Simple) following the manufacturer's instructions. Alternatively, monoallelic HEK293T cells expressing a granzyme-activated fluorescent reporter were pulsed with serial dilutions of peptide and co-cultured with T cells transduced with an individual TCR of interest. After 4 hours, the cultures were harvested by pipetting and fluorescence of the reporter was detected using a CytoFLEX™ S instrument (Beckman Coulter).

RAR peptide-pulsed cells = test: T cell recognition assay: IFNγ release on co-culture with RAR peptide-pulsed wild-type HEK293T cells; assay type: cell-based, human; conditions: wild-type HEK293T cells pulsed with serial dilutions of RAR peptide, co-cultured with TCR-transduced T cells; FIG. 4A
Experimental: as §1

[2] = test system: melanoma cells that express MAGEC2; test: Reactivity to melanoma cell lines measured by IFNγ release; assay type: cell-based, human
Experimental: To detect reactivity to melanoma cell lines, wild-type melanoma cell lines were seeded at 6×10^4 cells in a 96-well flat bottom plate and rested for 16 hours at 37° C. in 5% CO2. On the following day, T cells were thawed, washed in complete RPMI-1640 medium, and added to the wells for an effector to target ratio of 1:1. The co-culture was incubated for 16 hours. Cells were then harvested by pipetting, transferred to V-bottom 96-well plates, and centrifuged at 2,000 rpm for 2 minutes. The supernatant was collected for IFNγ measurement using a human IFNγ 3rd generation single-plex assay (Protein Simple). For flow cytometry analysis (Cytoflex S™ instrument, Beckman Coulter), cell pellets were washed with FACS buffer (PBS, 0.5% BSA, 2 mM EDTA) and stained for activation-induced markers, including PE-conjugated anti-CD137 (Miltenyi), AF647-conjugated anti-CD69 (Biolegend), and BV421-conjugated anti-CD8 (BioLegend).
Melanoma lines were purchased from ATCC (Manassas, VA) and HEK293T cells were originally from Takara Bio (Shiga, Japan). All media were supplemented with 10% FBS and 1% penicillin and incubated at 37° C. in 5% CO2. A101D, A2058, HT144, and HEK293T cells were maintained in complete DMEM. SK-MEL-5 was cultured in complete EMEM, whereas HMCB required complete EMEM with 10 mM HEPES. […]

[3] = test system: MAGEC2-expressing melanoma cell lines; test: Incucyte cytotoxicity assay on NucLight Red melanoma cell lines; assay type: cell-based, human; conditions: E:T ratio of 2:1; versus MHC-mismatched control TCR or no T cells; FIG. 6
Experimental: Melanoma lines were purchased from ATCC (Manassas, VA) and HEK293T cells were originally from Takara Bio (Shiga, Japan). All media were supplemented with 10% FBS and 1% penicillin and incubated at 37° C. in 5% CO2. A101D, A2058, HT144, and HEK293T cells were maintained in complete DMEM. SK-MEL-5 was cultured in complete EMEM, whereas HMCB required complete EMEM with 10 mM HEPES. Untransduced cancer cells were maintained in preparation for the T cell recognition assay, and 10^6 cells of each cell line were introduced with Incucyte® NucLight™ Red lentivirus reagent (Sartorius, Gottingen, Germany). Positively-labeled cells were selected using 1.5 ug/mL of puromycin over 72 hours.
Melanoma cells selected for Incucyte® NucLight™ analysis were seeded into 96-well flat bottom plates (Corning, Flintshire, UK) at 10^4 cells, except for HMCB cells, which were plated at 5×10^3 cells. On the same day, T cells were thawed, washed in complete RPMI-1640, and allowed to rest overnight in medium with 50 U/mL IL-2 (PeproTech), 5 ng/mL IL-7, and 5 ng/mL IL-15 (R&D Systems). All cells were rested for 16 hours at 37° C. in 5% CO2. A two-fold serial dilution of the T cells was performed for the effector to target ratios, with the highest E:T at 4:1, and the lowest at 1:2. […] Imaging utilized a 4× objective lens and data were analyzed using the Incucyte® Basic Software. […]

[4] = target: T2, MAGEC2 peptide on HLA-A*24:02 (human); test: killing
T2 peptide: VGPDHFCVF

VGP peptide-pulsed cells = test: IFP+ reporter-based cell killing of VGP peptide-pulsed HEK293T cells; parameters: species or system human; conditions: HEK293T cells pulsed with serial dilutions of VGP peptide, co-cultured with TCR-transduced T cells; FIG. 9A
Experimental: as §1
Data shown in FIGS. 7-9 were generated according to similar materials, methods, and experiments as described above.

[5] = target: T3, MAGEC2 peptide on HLA-B*07:02 (human); test: killing
T3 peptide: RAREFMELL

B1: TCR 8-3: T cell receptor (TRAV24*01/TRAJ32*02; TRBV16*01/TRBJ1-1*01) recognizing MAGEC2 RAR peptide presented by HLA-B*07:02; tested in transduced T cells (protein)
TCR alpha: ILNVEQSPQSLHVQEGDSTNFTCSFPSSNFYALHWYRWETAKSPEALFVMTLNGDEKKKGRISATLNTKEGYSYLYIKGSQPEDSATYLCASGSGGATNKLIFGTGTLLAVQPNIQNPEPAVYQLKDPRSQDSTLCLFTDFDSQINVPKTMESGTFITDKCVLDMKAMDSKSNGAIAWSNQTSFTCQDIFKETNATYPSSDVPCDATLTEKSFETDMNLNFQNLLVMVLRILLLKVAGFNLLMTLRLWSS
TCR beta: GEEVAQTPKHLVRGEGQKAKLYCAPIKGHSYVFWYQQVLKNEFKFLISFQNENVFDETGMPKERFSAKCLPNSPCSLEIQATKLEDSAVYFCASSQSRSLRGTEAFFGQGTRLTVVEDLRNVTPPKVSLFEPSKAEIANKQKATLVCLARGFFPDHVELSWWVNGKEVHSGVCTDPQAYKESNYSYCLSSRLRVSATFWHNPRNHFRCQVQFHGLSEEDKWPEGSPKPVTQNISAEAWGRADCGITSASYQQGVLSATILYEILLGKATLYAVLVSTLVVMAMVKRKNS
Killing of RAR peptide-pulsed cells (granzyme-activated fluorescent reporter) [1]: demonstrated to kill cells expressing RAR peptide-HLA-B*07:02 (pMHC) complex; also recorded: kills | Recognition of RAR peptide-pulsed cells (IFNγ release) (RAR peptide-pulsed cells): recognizes | Relation of TCR reactivity to MAGEC2 expression of melanoma cell lines ([2]; IFNγ release versus MAGEC2 expression, FIG. 5E): corresponds to MAGEC2 expression | Recognition of melanoma cell lines (IFNγ release) ([2]; melanoma cell lines, E:T 1:1, 16 hours, FIG. 5D): recognizes melanoma cells that express MAGEC2 | Killing of MAGEC2-expressing melanoma cell lines (red object count over time) [3]: demonstrated to kill cancer cells that express MAGEC2; also recorded: kills MAGEC2-expressing melanoma cell lines

B2: MAGEC2 TCR 4-58 (TCR, V domains shown)
Valpha: KNQVEQSPQSLIILEGKNCTLQCNYTVSPFSNLRWYKQDTGRGPVSLTIMTFSENTKSNGRYTATLDADTKQSSLHITASQLSDSASYICVVSARNAGNMLTFGGGTRLMVKP
Vbeta: EAQVTQNPRYLITVTGKKLTVTCSQNMNHEYMSWYRQDPGLGLRQIYYSMNVEVTDKGDVPEGYKVSRKEKRNFPLILESPSPNQTSLYFCACASSFGTSGRGEQFFGPGTRLTVL
binding result [4]: recognises

B3: TCR 4-58: T cell receptor (TRAV10/TRAJ39; TRBV27) recognizing MAGEC2 VGP peptide presented by HLA-A*24:02; tested in transduced T cells (protein)
TCR alpha: RGNGKNQVEQSPQSLIILEGKNCTLQCNYTVSPFSNLRWYKQDTGRGPVSLTIMTFSENTKSNGRYTATLDADTKQSSLHITASQLSDSASYICVVSARNAGNMLTFGGGTRLMVKPHIQNPEPAVYQLKDPRSQDSTLCLFTDFDSQINVPKTMESGTFITDKCVLDMKAMDSKSNGAIAWSNQTSFTCQDIFKETNATYPSSDVPCDATLTEKSFETDMNLNFQNLLVMVLRILLLKVAGFNLLMTLRLWSS
TCR beta: EAQVTQNPRYLITVTGKKLTVTCSQNMNHEYMSWYRQDPGLGLRQIYYSMNVEVTDKGDVPEGYKVSRKEKRNFPLILESPSPNQTSLYFCACASSFGTSGRGEQFFGPGTRLTVLEDLRNVTPPKVSLFEPSKAEIANKQKATLVCLARGFFPDHVELSWWVNGKEVHSGVCTDPQAYKESNYSYCLSSRLRVSATFWHNPRNHFRCQVQFHGLSEEDKWPEGSPKPVTQNISAEAWGRADCGITSASYQQGVLSATILYEILLGKATLYAVLVSTLVVMAMVKRKNS
Recognition and killing of VGP peptide-pulsed cells (IFP+ reporter-based cell killing) (VGP peptide-pulsed cells): recognizes and kills VGP peptide-pulsed cells

B4: MAGEC2 TCR 8-3 (TCR, V domains shown)
Valpha: ILNVEQSPQSLHVQEGDSTNFTCSFPSSNFYALHWYRWETAKSPEALFVMTLNGDEKKKGRISATLNTKEGYSYLYIKGSQPEDSATYLCASGSGGATNKLIFGTGTLLAVQP
Vbeta: GEEVAQTPKHLVRGEGQKAKLYCAPIKGHSYVFWYQQVLKNEFKFLISFQNENVFDETGMPKERFSAKCLPNSPCSLEIQATKLEDSAVYFCASSQSRSLRGTEAFFGQGTRLTVV
binding result [5]: recognises

Source: patent US20240190931A1, “MAGEC2 IMMUNOGENIC PEPTIDES, BINDING PROTEINS RECOGNIZING MAGEC2 IMMUNOGENIC PEPTIDES, AND USES THEREOF” (TScan Therapeutics, Inc., priority 2021, published 2024)
